Holding throughout (test): two-hybrid library CCNG1;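 further: natural log of median RNA to DNA barcode read ratio; higher means stronger binding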
For assay [1], the target named is T1, 4H3185-bN.
T1 chain: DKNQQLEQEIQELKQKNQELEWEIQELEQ

The target in assay [2] is T2, 4H331-bN.
T2 chain: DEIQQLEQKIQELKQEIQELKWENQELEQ

Assay [3] addresses T3, 4H3354-bN.
T3 chain: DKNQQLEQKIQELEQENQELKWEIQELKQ

Assay [4] deals with T4, 4H338-bN.
T4 chain: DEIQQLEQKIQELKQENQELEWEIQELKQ

In assay [5] the target is T5, 4H3427-bN.
T5 chain: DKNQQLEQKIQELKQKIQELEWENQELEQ

For assay [6], the target named is T6, 4H3782-bN.
T6 chain: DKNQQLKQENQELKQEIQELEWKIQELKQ

Assay [7] addresses T7, 4H3855-bN.
T7 chain: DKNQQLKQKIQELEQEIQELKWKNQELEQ

The target of assay [8] is T8, 4H4001-bN.
T8 chain: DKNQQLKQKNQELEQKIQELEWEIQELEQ

The target in assay [9] is T9, 4H454-bN.
T9 chain: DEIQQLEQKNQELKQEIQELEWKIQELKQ

Assay [10] addresses T10, 4H568-bN.
T10 chain: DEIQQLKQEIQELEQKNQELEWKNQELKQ

Assay [11] addresses T11, 4H607-bN.
T11 chain: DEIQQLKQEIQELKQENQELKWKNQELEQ

Assay [12] has as its target T12, 4H687-bN.
T12 chain: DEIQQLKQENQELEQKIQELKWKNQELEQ

The target of assay [13] is T13, 4H717-bN.
T13 chain: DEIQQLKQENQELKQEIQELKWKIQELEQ

Assay [14] concerns the target T14, 4H72-bN.
T14 chain: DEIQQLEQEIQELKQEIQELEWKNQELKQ

The target of assay [15] is T15, 4H754-bN.
T15 chain: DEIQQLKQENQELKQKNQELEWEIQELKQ

Assay [16] concerns the target T16, 4H797-bN.
T16 chain: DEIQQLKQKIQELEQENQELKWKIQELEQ

Assay [17] concerns the target T17, 4H883-bN.
T17 chain: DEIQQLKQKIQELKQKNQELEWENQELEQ

Assay [18] has as its target T18, 4H908-bN.
T18 chain: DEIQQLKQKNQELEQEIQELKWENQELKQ

The target of assay [19] is T19, 4H918-bN.
T19 chain: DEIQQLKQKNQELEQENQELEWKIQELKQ

Assay [20] concerns the target T20, 4H953-bN.
T20 chain: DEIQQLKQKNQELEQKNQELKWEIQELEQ

Assay [21] concerns the target T21, 4H967-bN.
T21 chain: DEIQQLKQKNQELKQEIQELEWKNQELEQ

For assay [22], the target named is T22, P4mS.
T22 chain: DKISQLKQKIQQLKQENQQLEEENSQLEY

Assay [23] deals with T23, P9SHb.
T23 chain: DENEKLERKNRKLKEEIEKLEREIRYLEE

Assay [24] has as its target T24, P5mS.
T24 chain: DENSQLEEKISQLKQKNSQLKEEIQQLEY

For assay [25], the target named is T25, P6mS.
T25 chain: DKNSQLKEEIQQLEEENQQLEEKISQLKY

Assay [26] concerns the target T26, P7mS.
T26 chain: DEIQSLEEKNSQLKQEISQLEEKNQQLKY

In assay [27] the target is T27, P8mS.
T27 chain: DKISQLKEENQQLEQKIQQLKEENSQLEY

In assay [28] the target is T28, P9mS.
T28 chain: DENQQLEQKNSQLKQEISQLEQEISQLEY

Assay [29] has as its target T29, 4H2223-bH.
T29 chain: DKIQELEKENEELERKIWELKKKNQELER

Assay [30] concerns the target T30, 4H2438-bH.
T30 chain: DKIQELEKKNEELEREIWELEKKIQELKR

The target of assay [31] is T31, 4H2473-bH.
T31 chain: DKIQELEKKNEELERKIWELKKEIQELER

In assay [32] the target is T32, 4H2503-bH.
T32 chain: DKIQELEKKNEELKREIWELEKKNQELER

Assay [33] addresses T33, 4H2588-bH.
T33 chain: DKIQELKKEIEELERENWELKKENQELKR

The target in assay [34] is T34, 4H2692-bH.
T34 chain: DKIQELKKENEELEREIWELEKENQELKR

Assay [35] addresses T35, 4H2717-bH.
T35 chain: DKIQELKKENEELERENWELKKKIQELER

The target in assay [36] is T36, 4H2839-bH.
T36 chain: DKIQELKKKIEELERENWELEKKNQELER

Assay [37] has as its target T37, 4H2915-bH.
T37 chain: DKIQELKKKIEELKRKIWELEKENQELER

Assay [38] concerns the target T38, 4H3057-bH.
T38 chain: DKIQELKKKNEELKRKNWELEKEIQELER

Assay [39] has as its target T39, 4H319-bH.
T39 chain: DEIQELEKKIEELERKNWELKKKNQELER

The target in assay [40] is T40, 4H3277-bH.
T40 chain: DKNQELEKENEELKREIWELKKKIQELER

Assay [41] has as its target T41, 4H348-bH.
T41 chain: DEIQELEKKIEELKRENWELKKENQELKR

The target in assay [42] is T42, 4H40-bH.
T42 chain: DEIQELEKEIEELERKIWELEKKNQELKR

Assay [43] deals with T43, 4H477-bH.
T43 chain: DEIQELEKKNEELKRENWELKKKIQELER

In assay [44] the target is T44, 4H492-bH.
T44 chain: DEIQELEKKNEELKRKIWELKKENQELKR

The target in assay [45] is T45, 4H741-bH.
T45 chain: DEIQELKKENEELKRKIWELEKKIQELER

Assay [46] has as its target T46, 4H1373-bN.
T46 chain: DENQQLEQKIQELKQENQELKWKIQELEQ

The target in assay [47] is T47, 4H1449-bN.
T47 chain: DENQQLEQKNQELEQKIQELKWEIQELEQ

Assay [48] deals with T48, 4H1544-bN.
T48 chain: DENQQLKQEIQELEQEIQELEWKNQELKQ

Assay [49] has as its target T49, 4H1710-bN.
T49 chain: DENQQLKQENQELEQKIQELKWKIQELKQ

The target in assay [50] is T50, 4H1899-bN.
T50 chain: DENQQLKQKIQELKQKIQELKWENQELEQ

In assay [51] the target is T51, 4H1985-bN.
T51 chain: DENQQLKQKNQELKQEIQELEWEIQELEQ

Assay [52] deals with T52, 4H2697-bH.
T52 chain: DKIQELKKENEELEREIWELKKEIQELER

Assay [53] deals with T53, 4H3162-bN.
T53 chain: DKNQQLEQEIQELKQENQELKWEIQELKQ

Assay [54] deals with T54, 4H3175-bN.
T54 chain: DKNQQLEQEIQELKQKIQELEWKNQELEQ

The target of assay [55] is T55, 4H3277-bN.
T55 chain: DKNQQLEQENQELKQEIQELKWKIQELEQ

Assay [56] concerns the target T56, 4H3298-bN.
T56 chain: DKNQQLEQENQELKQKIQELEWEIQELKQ

For assay [57], the target named is T57, 4H338-bH.
T57 chain: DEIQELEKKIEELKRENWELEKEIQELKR

In assay [58] the target is T58, 4H3462-bN.
T58 chain: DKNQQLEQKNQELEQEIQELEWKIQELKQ

For assay [59], the target named is T59, 4H3497-bN.
T59 chain: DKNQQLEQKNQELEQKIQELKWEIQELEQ

The target of assay [60] is T60, 4H3613-bN.
T60 chain: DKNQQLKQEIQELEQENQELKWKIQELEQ

Assay [61] concerns the target T61, 4H3628-bN.
T61 chain: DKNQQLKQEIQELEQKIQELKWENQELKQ

Assay [62] deals with T62, 4H3817-bN.
T62 chain: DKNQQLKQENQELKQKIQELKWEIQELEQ

For assay [63], the target named is T63, 4H3858-bN.
T63 chain: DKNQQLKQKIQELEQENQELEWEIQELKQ

The target of assay [64] is T64, 4H3926-bN.
T64 chain: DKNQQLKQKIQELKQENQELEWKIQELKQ

In assay [65] the target is T65, 4H3974-bN.
T65 chain: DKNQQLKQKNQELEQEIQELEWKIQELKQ

Assay [66] deals with T66, 4H570-bN.
T66 chain: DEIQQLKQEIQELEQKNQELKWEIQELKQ

Assay [67] addresses T67, 4H591-bN.
T67 chain: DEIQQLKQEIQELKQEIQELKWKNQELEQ

The target in assay [68] is T68, 4H626-bN.
T68 chain: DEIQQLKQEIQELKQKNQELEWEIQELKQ

For assay [69], the target named is T69, 4H850-bN.
T69 chain: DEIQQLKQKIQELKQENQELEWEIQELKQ

The target of assay [70] is T70, 4H906-bN.
T70 chain: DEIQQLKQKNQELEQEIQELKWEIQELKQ

The values that follow come from PMC10397247.

B1: 4H3185-bN (peptide)
chain: DKNQQLEQEIQELKQKNQELEWEIQELEQ
Take B1: the interaction score in assay [1] was -1.05; in assay [2], -2.02; in assay [3] it was -0.593; in assay [4] it was -1.14; in assay [5] it was -0.99; in assay [6], -0.997. Further, the interaction score was -1.23 in assay [7]; -1.46 in assay [8]; -2.08 in [9]; -2.82 in assay [10]; -0.581 in assay [11]; -2.77 in assay [12]. Moreover, the interaction score in assay [13] is -0.903; in [14], -2.24; in assay [15], -0.979; in assay [16] it was -0.638; in assay [17], -1.12; in [18], -0.952. Further, the interaction score in [19] was -1.19; in [20], -1.45; in [21] it was -2.19; in [22], -0.366; in assay [23], -0.815.

B2: P4mS (peptide)
chain: DKISQLKQKIQQLKQENQQLEEENSQLEY
As for B2, the interaction score in assay [22] was -1.66; in assay [24], -1.04; in [25], -1.48; in assay [26], -1.14; in assay [27], -1.85; in assay [28] it was -1.28.

B3: 4H2223-bH (peptide)
chain: DKIQELEKENEELERKIWELKKKNQELER
In the case of B3, the interaction score in assay [29] is -0.882; in assay [30] it was -0.678; in assay [31], 0.446; in assay [32], 1.19; in assay [33], 0.461; in assay [34], 0.736. Also, the interaction score in assay [35] is 0.113; in assay [36], 0.582; in [37] it was 0.816; in [38] it was 0.455; in assay [39] it was -0.374; in assay [40] it was 0.0226. For the same molecule, the interaction score was -1.35 in [41]; -1.6 in assay [42]; -0.907 in [43]; -0.847 in assay [44]; 0.0741 in assay [45].

B4: 4H1373-bN (peptide)
chain: DENQQLEQKIQELKQENQELKWKIQELEQ
Turning to B4, the interaction score is -0.169 in assay [46]; -0.869 in [47]; -0.522 in [48]; -0.292 in assay [49]; -1.32 in assay [50]; -1.63 in assay [51]. The interaction score in assay [52] was -2.86; in assay [53] it was -0.675; in assay [54], -0.941; in assay [55] it was -1.18; in [56], -0.763; in assay [57], -0.758. The interaction score was -0.946 in assay [58]; -1.41 in [59]; 1.13 in assay [60]; -0.846 in assay [61]; -0.749 in assay [62]; 0.337 in assay [63]. Further, the interaction score in [64] was 1.21; in [65], -0.592; in assay [66], -1.29; in assay [67], -0.619; in assay [68], -0.375; in assay [14] it was -2.48. The interaction score was -0.952 in assay [69] and -1.37 in assay [70].
